Where two headings read alike, the source gives them in different places.
B1: K1-3: angiostatin fragment K1-3 (fragment of plasminogen), recombinant, sequence of SEQ ID NO.2, expressed in E. coli (protein, listed as Homo sapiens)
chain: MVYLSECKTGNGKNYRGTMSKTKNGITCQKWSSTSPHRPRFSPATHPSEGLEENYCRNPDNDPQGPWCYTTDPEKRYDYCDILECEEECMHCSGENYDGKISKTMSGLECQAWDSQSPHAHGYIPSKFPNKNLKKNYCRNPDRELRPWCFTTDPNKRWELCDIPRCTTPPPSSGPTYQCLKGTGENYRGNVAVTVSGHTCQHWSAQTPHTHNRTPENFPCKNLDENYCRNPDGKRAPWCHTTNSQVRWEYCKIPSCDSSP
B2: PEG-K1-3: K1-3 having the sequence of SEQ ID NO:2 modified with 20 kDa PEG at the N-terminal α-amino group (conjugate, listed as Homo sapiens)
chain: B1 chain
modifications: 20 kDa PEG at N-terminus
B3: K1: fragment of recombinant human plasminogen; angiostatin K1, SEQ ID NO:3 (protein, listed as Homo sapiens)
chain: CKTGNGKNYRGTMSKTKNGITCQKWSSTSPHRPRFSPATHPSEGLEENYCRNPDNDPQGPWCYTTDPEKRYDYCDILEC
B4: K2: fragment of recombinant human plasminogen; angiostatin K2, SEQ ID NO:4 (protein, listed as Homo sapiens)
chain: CMHCSGENYDGKISKTMSGLECQAWDSQSPHAHGYIPSKFPNKNLKKNYCRNPDRELRPWCFTTDPNKRWELCDIPRC
B5: K3: fragment of recombinant human plasminogen; angiostatin K3, SEQ ID NO:5 (protein, listed as Homo sapiens)
chain: CLKGTGENYRGNVAVTVSGHTCQHWSAQTPHTHNRTPENFPCKNLDENYCRNPDGKRAPWCHTTNSQVRWEYCKIPSC

Columns and labels:
[1] = test system: NCI-H226 NSCLC xenograft; test: NCI-H226 NSCLC xenograft model, tumor burden; format: in vivo, Balb/c nu/nu mice; details: for T/C ratio: PEG-K1-3 4.5 mg/kg i.v., Taxol 20 mg/kg i.v.; for tumor inhibition rate: tumor burden 21 days after treatment, vs control group, PEG-K1-3 4.5 mg/kg, Taxol 20 mg/kg
Description: (§1) Female Balb/c nu/nu mice aged 6-8 weeks of about 18-20 g weight (institute of laboratory animal sciences, CAMS) were used in this experiment. Mice were subcutaneously inoculated on the right side with NCI-H226 cells (human pancreatic cancer cell line, derived from ATCC, ATCC number CRL-5826). When the tumor volume reached about 80-125 mm^3, the animals were divide into 3 groups randomly (6 per group). […] The body weight and tumor volume of the animals were measured twice a week. Sacrifice the animals on day 28, collect the tumors and take photographs.

[2] = body weight of animals in the NCI-H226 xenograft model; details: 20 mg/kg; Day 11 and Day 25; ANOVA p<0.05
Description: as §1

[3] = in vivo half-life of K1-3 with or without PEG modification in Wistar rat
Description: The K1-3 used in this example has the sequence of SEQ ID NO.2. The efficacy of tK1-3 with PEG coupled to its N-terminus was evaluated by measuring the in vivo half-life of K1-3 with or without PEG modification in Wistar rat (Vitalriver Experimental Animal Center), respectively. Two healthy Wistar rat (about 200 g) were injected intraveniously with K1-3 and K1-3 modified with PEG, respectively, at a dose of 4.5 mg/kg body weight. Blood samples were taken from eye sockets of the rats at 0, 5, 10, 30 minutes, 1, 2, 4, 8, 16, 24, 36, 48, 72, 96, 120 and 144 hours. Plasma was then collected and the concentration of K1-3 with or without PEG modification was measured by sandwich ELISA, respectively.

[4] = test system: human umbilical vein endothelial cell (HUVEC); test: trans-well migration of HUVEC; format: cell-based; details: 8 hours
Description: The K1-3 used in this example has the sequence of SEQ ID NO.2. HUVECs (Protgen, Beijing) were cultured in the M199 medium (Hyclone) containing 20% fetal bovine serum (Hyclone) to exponential phase. After starved for 12 hours, cells were added into trans-well inserts (Millipore, USA) at the concentration of 10,000 cells per well for measurement of cell migration. Mediums for migration assay included M199 medium with 5% serum. For the treatment groups, K1-3 with or without modification were added to the cells at 0.004, 0.04, 0.4 and 4 μg/ml. After culturing for 8 hours at 37° C., the cells in the trans-well inserts were fixed with 1% glutaraldehyde (Beijing chemical plant, China). […] The migrated cell number was counted under microscope (Olympus). Cells in three different fields in one plate treatment were counted and then the inhibition rate was calculated. At the concentration of 0.04-4 μg/ml, the inhibitory effect of cell migration improves with the increase of protein concentration.

[5] = test system: human umbilical vein endothelial cell (HUVEC); format: cell-based; details: 16 hours
Description: The K1-3 used in this example has the sequence of SEQ ID NO.2. 2×10^5/ml HUVEC were inoculated in 12-well plates (Corning) and cultured in the M199 medium (Hyclone) containing 20% fetal bovine serum (Hyclone) to exponential phase. After starved for 12 hours, crossed wounds were created in each well. Suspending cells were washed away. Experimental groups were as follows: negative control (PBS), positive control (K1-3 at the concentration of 0.04, 0.4 and 4 μg/ml) and treatment group (K1-3 with PEG at the concentration of 0.04, 0.4 and 4 μg/ml). After culturing for 16 hours at 37° C., the amounts of migrated cells were detected. At the concentration of 0.04-4 μg/ml, the inhibitory effect of cell migration was improved with the increase of protein concentration.

[6] = test system: HeLa (human cervical cancer); test: proliferation of tumor cells (HeLa), MTT; format: cell-based; details: 48 hours; for concentration showing the highest anti-proliferation effect on tumor cells: among 0.4, 4, 40 and 150 μg/ml
Description: K1-3 used in this example is the K1-3 having the sequence of SEQ ID NO.2. Specifically, HeLa (ATCC#CCL-2, USA) were added into 96-well plates at 20,000 cells per well, then cultured in the DMEM medium (Hyclone) containing 10% serum to exponential phase. After starving for 12 hours, cells were treated with different concentrations of modified or unmodified K1-3 for measurement of cell proliferation. Experimental groups were as follows: negative control group (PBS), positive control groups (0.4, 4, 40, and 150 μg/ml K1-3), and treatment group (0.4, 4, 40, and 150 μg/ml K1-3 with PEG coupled to its N-terminus). After culturing for 48 hours at 37° C., the cells in the plates were treated with MTT for 4 h at 37° C. Then DMSO was added, and the absorption was measured at 570 nm by microplate spectrophotometer.

[7] = test system: B16 melanoma; test: late-stage B16 melanoma mice tumor model; format: in vivo, C57B/L mice; details: subcutaneous, tumor weight day 11
Description: K1-3 used in this example is K1-3 having the sequence of SEQ ID NO.2. Experiments were performed to observe the in vivo inhibitory activity of K1-3 with PEG coupled to its N-terminus on late-stage B16 tumor. C57B/L mice of about 20 g were used in the experiment (Beijing Vital River Laboratory Animal Co. Ltd.). Mice were inoculated at back with B16 cells (ATCC#CRL-6475, USA), 1×10^6 cells per mouse. The mice were then randomly grouped after the tumor volume reaches 1 cm^3, 8 mice per group, including the negative control group (sodium acetate), the positive control group (K1-3, 4.5 mg/kg body weight, administered daily), three treatment groups (K1-3 with PEG coupled to its N-terminus, 1.5 mg/kg body weight, administered daily, or 4.5 mg/kg body weight, administered daily, every 3 days, every 6 days, or every 9 days, respectively). Administration was performed by subcutaneous injection and lasted for 10 days. The mice were sacrificed on day 11, the weight of tumor was measured, and the efficacy was evaluated by tumor inhibition rate.

[8] = test system: H22 hepatocellular carcinoma; test: early-stage H22 hepatocellular carcinoma mice tumor model; format: in vivo, Balb/c mice; details: subcutaneous, 3 weeks, tumor weight day 22
Description: K1-3 used in this example is K1-3 having the sequence of SEQ ID NO.2. Experiments were performed to observe the in vive inhibitory activity of K1-3 with PEG coupled to its N-terminus on early-stage H22 tumor. Balb/c mice of about 20 g were used in the experiment (Beijing Vital River Laboratory Animal Co. Ltd.). Mice were inoculated at back with H22 cells, 1×10^6 cells per mouse. The mice were then randomly grouped after the tumor volume reaches 1 cm^3, 8 mice per group, including the negative control group (sodium acetate), the positive control group (K1-3, 4.5 mg/kg body weight, administered daily), three treatment groups (K1-3 with PEG coupled to its N-terminus, 1.5 mg/kg body weight, administered daily, or 4.5 mg/kg body weight, administered daily, twice per week, or weekly, respectively). The administration was performed by subcutaneous injection and lasted for 3 weeks. The mice were sacrificed on day 22, the weight of tumor was measured, and the efficacy was evaluated by tumor inhibition rate. […] Since the in vivo half life of K1-3 with PEG coupled to its N-terminus are longer than that of unmodified K1-3 of the same dosage, the biological activity K1-3 with PEG coupled to its N-terminus is higher than that of the unmodified K1-3 of the same concentration when administration intervals are extended.

[9] = test system: bovine capillary endothelial cell (BCE); details: cited from earlier work; for inhibition of BCE proliferation: fragments of recombinant human plasminogen
[10] = Wistar rat, injected intravenously, 4.5 mg/kg body weight, plasma, sandwich ELISA
[11] = 4.5 mg/kg body weight daily, 10 days

Molecule | T/C ratio ([1]; Day 4) | T/C ratio ([1]; Day 11) | T/C ratio ([1]; Day 18) | T/C ratio ([1]; Day 25) | tumor inhibition rate [1] | half-life [3, 10] | inhibition rate on cells migration ([4]; 0.04 μg/ml) | inhibition rate on cells migration ([4]; 0.4 μg/ml) | inhibition rate on cells migration ([4]; 4 μg/ml) | inhibition rate on cells migration (wound healing) ([5]; 0.04 μg/ml) | inhibition rate on cells migration (wound healing) ([5]; 0.4 μg/ml) | inhibition rate on cells migration (wound healing) ([5]; 4 μg/ml) | concentration showing the highest anti-proliferation effect on tumor cells [6] | tumor inhibition rate [7, 11] | tumor inhibition rate ([8]; 4.5 mg/kg body weight daily) | inhibition of BCE proliferation [9] | other results
CC(=O)O[C@H]1C(=O)[C@@]2(C)[C@H]([C@H](OC(=O)c3ccccc3)[C@]3(O)C[C@H](OC(=O)[C@H](O)[C@@H](NC(=O)c4ccccc4)c4ccccc4)C(C)=C1C3(C)C)[C@]1(OC(C)=O)CO[C@@H]1C[C@@H]2O [Taxol, reference compound] | 69% | 39% | 28% | 18% | 84.43% | – | – | – | – | – | – | – | – | – | – | – | tumor burden compared with the control group ([1]; 20 mg/kg i.v., Day 11, Day 15, Day 18): significantly difference; average body weight compared with the control group [2]: significantly lower
B1 | – | – | – | – | – | 12.2 h | 43% | 68% | 76% | 0% | 20% | 25% | 40 µg/mL | 45% | 51% | effectively inhibit | inhibitory effect on cell proliferation compared with angiostatin K1-4 [9]: significantly stronger
B2 | 73% | 63% | 62% | 66% | 17.18% | 81.5 h | 58% | 65% | 69% | 35% | 40% | 105% | 40 µg/mL | 60% | 60% | – | half-life ([3]; summary statement, refers to example 4): 81.5 h; inhibition of the tumor cell proliferation compared with unmodified K1-3 ([6]; 0.4-150 μg/ml): more potent than unmodified K1-3; tumor inhibition rate ([7]; 1.5 mg/kg body weight daily, 10 days): 28%; tumor inhibition rate ([7]; 4.5 mg/kg body weight every 3 days): 34%; tumor inhibition rate ([7]; 4.5 mg/kg body weight every 6 days): 25%; tumor inhibition rate ([7]; 4.5 mg/kg body weight every 9 days): 24%; tumor inhibition rate ([8]; 1.5 mg/kg body weight daily): 54%; tumor inhibition rate ([8]; 4.5 mg/kg body weight weekly): 50%; tumor burden compared with the control group ([1]; 4.5 mg/kg i.v., p<0.05): significantly decreased
B3 | – | – | – | – | – | – | – | – | – | – | – | – | – | – | – | effectively inhibit | –
B4 | – | – | – | – | – | – | – | – | – | – | – | – | – | – | – | effectively inhibit | –
B5 | – | – | – | – | – | – | – | – | – | – | – | – | – | – | – | effectively inhibit | –
